Patent publication US20220289855A1 (University of California, published 2022)

Target: T1, integrin α4β1 (mouse, UniProt Q00651 41-1039; P09055 21-798)
T1 construct: whole, on cells
Assay: flow cytometry, soluble ligand on mouse Tregs
Procedure: Splenic lymphocytes were isolated from Foxp3^GFP mice and were washed and resuspended in HBSS containing 0.1% BSA and 1 mM Ca²⁺/Mg²⁺, prior to incubation with integrin ligands for […] at 37° C. in the presence of IL-2 (10 ug/ml), rat-PC61 (5 ug/ml, Bioxcell), rat-rIgG (5 ug/ml, Bioxcell), murine-PC61 (5 ug/ml) and murine-IgG (5 ug/ml, Bioxcell). Cells were then incubated with AlexFluor647-conjugated anti-human IgG (1:200) for […] at 4° C. Then cells were washed twice before flow cytometry analysis using an Accuri C6 Plus (BD Biosciences). Data were analyzed using FlowJo software.

T1 sequence (Q00651 41-1039, chain 1 of 2): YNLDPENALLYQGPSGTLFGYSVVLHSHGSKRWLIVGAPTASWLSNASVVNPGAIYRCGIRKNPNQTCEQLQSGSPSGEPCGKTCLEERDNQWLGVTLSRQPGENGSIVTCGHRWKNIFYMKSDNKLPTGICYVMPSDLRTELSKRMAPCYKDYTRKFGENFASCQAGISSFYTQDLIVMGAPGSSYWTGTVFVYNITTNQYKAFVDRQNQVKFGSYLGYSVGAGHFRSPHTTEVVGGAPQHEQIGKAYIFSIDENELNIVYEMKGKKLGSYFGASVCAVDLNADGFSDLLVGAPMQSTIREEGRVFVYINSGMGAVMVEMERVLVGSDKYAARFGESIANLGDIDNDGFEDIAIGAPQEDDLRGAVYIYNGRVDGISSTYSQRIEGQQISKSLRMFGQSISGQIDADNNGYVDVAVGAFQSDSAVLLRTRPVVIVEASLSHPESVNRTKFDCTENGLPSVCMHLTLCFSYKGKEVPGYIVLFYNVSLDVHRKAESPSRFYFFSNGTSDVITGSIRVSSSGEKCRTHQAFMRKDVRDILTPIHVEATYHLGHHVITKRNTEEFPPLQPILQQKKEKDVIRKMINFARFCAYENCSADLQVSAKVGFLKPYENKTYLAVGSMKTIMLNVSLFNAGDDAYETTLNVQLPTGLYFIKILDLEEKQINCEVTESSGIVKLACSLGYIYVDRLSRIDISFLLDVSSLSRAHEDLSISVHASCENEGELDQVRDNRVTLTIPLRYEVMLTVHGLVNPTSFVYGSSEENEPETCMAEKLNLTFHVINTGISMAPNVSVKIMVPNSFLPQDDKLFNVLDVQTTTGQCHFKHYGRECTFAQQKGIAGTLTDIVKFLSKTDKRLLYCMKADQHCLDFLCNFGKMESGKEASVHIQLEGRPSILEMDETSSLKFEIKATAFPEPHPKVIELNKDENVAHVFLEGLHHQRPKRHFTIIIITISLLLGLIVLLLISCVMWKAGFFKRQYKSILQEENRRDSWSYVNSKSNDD
T1 sequence (P09055 21-798, chain 2 of 2): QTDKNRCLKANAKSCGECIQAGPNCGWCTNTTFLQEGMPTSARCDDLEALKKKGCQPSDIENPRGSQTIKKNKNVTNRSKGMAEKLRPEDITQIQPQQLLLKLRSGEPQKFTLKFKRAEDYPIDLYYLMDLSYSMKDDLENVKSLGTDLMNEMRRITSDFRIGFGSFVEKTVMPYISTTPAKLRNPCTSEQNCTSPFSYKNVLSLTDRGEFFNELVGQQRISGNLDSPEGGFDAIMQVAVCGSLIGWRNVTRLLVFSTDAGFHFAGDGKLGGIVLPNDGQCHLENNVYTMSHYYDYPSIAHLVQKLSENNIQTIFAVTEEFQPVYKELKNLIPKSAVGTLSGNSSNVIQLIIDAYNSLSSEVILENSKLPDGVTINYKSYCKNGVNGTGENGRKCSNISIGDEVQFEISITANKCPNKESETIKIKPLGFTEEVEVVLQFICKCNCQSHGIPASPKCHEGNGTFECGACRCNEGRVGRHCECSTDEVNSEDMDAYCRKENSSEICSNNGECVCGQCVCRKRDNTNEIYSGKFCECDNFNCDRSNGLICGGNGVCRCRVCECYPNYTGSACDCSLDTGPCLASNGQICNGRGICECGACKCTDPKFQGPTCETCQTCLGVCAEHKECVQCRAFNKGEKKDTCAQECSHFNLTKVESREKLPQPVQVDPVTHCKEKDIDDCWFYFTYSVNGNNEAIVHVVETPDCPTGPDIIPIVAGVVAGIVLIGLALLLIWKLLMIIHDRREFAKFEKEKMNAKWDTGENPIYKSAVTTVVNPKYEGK

binding result: binds
B1: purified mouse VCAM-Fc (Fc fusion, UniProt P29533 25-698, looked up)
chain: FKIEISPEYKTIAQIGDSMALTCSTTGCESPLFSWRTQIDSPLNAKVRTEGSKSVLTMEPVSFENEHSYLCTATCGSGKLERSIHVDIYSFPKDPEIQFSGPLEVGKPVTVKCLAPDIYPVYRLEIDLFKGDQLMNRQEFSSEEMTKSLETKSLEVTFTPVIEDIGKALVCRAKLHIDQIDSTLKERETVKELQVYISPRNTTISVHPSTRLQEGGAVTMTCSSEGLPAPEIFWGRKLDNEVLQLLSGNATLTLIAMRMEDSGVYVCEGVNLIGRDKAEVELVVQEKPFIVDISPGSQVAAQVGDSVVLTCAAIGCDSPSFSWRTQTDSPLNGVVRNEGAKSTLVLSSVGFEDEHSYLCAVTCLQRTLEKRTQVEVYSFPEDPVIKMSGPLVHGRPVTVNCTVPNVYPFDHLEIELLKGETTLMKKYFLEEMGIKSLETKILETTFIPTIEDTGKSLVCLARLHSGEMESEPKQRQSVQPLYVNVAPKETTIWVSPSPILEEGSPVNLTCSSDGIPAPKILWSRQLNNGELQPLSENTTLTFMSTKRDDSGIYVCEGINEAGISRKSVELIIQVSPKDIQLTVFPSKSVKEGDTVIISCTCGNVPETWIILKKKAKTGDMVLKSVDGSYTIRQAQLQDAGIYECESKTEVGSQLRSLTLDVKGKEHNKDYFSPE
notes: also called VCAM-1; soluble VCAM-1; not shown: Fc part, detected with anti-Human Fc
